{"source": "the Human Domainome abundance scans (Beltran et al. 2025)", "parents": {"B1": {"name": "TOX high mobility group box family member 3, residues 256 to 323; numbered along this chain, O15405 (parent)", "chain": "QKPVSAYALFFRDTQAAIKGQNPNATFGEVSKIVASMWDSLGEEQKQVYKRKTEAAKKEYLKALAAYR"}}, "note": "± gives the uncertainty stated by the source."}
{"variants_of": "B1", "experiment": "abundance fitness (aPCA) (normalised: wild type 0, dead -1); higher = more abundant; growth selection in yeast, the domain comes from the species named", "conditions": "Homo sapiens"}
{"variant": "V4Q", "abundance fitness": "-0.073 ± 0.058"}
{"variant": "V4R", "abundance fitness": "-0.109 ± 0.043"}
{"variant": "K52G", "abundance fitness": "-0.474 ± 0.072"}
{"variant": "K52Y", "abundance fitness": "-0.28 ± 0.073"}
{"variant": "K52Q", "abundance fitness": "-0.291 ± 0.071"}
{"variant": "E43G", "abundance fitness": "-0.43 ± 0.099"}
{"variant": "E43F", "abundance fitness": "-0.237 ± 0.079"}
{"variant": "E43C", "abundance fitness": "-0.165 ± 0.1"}
{"variant": "E43H", "abundance fitness": "-0.27 ± 0.13"}
{"variant": "E43A", "abundance fitness": "-0.085 ± 0.054"}
{"variant": "E43R", "abundance fitness": "-0.274 ± 0.075"}
{"variant": "E43V", "abundance fitness": "-0.12 ± 0.059"}
{"variant": "E43D", "abundance fitness": "-0.151 ± 0.12"}
{"variant": "E43M", "abundance fitness": "-0.255 ± 0.12"}
{"variant": "P3R", "abundance fitness": "-0.157 ± 0.053"}
{"variant": "S40T", "abundance fitness": "0.099 ± 0.061"}
{"variant": "S40A", "abundance fitness": "0.005 ± 0.062"}
{"variant": "S40M", "abundance fitness": "-0.164 ± 0.078"}
{"variant": "S40C", "abundance fitness": "-0.338 ± 0.15"}
{"variant": "S40V", "abundance fitness": "-0.167 ± 0.058"}
{"variant": "S40Q", "abundance fitness": "0.003 ± 0.069"}
{"variant": "S40D", "abundance fitness": "-0.223 ± 0.11"}
{"variant": "S40E", "abundance fitness": "0.01 ± 0.042"}
{"variant": "S40R", "abundance fitness": "-0.004 ± 0.05"}
{"variant": "L41K", "abundance fitness": "-0.931 ± 0.14"}
{"variant": "L41Y", "abundance fitness": "-0.902 ± 0.23"}
{"variant": "A65T", "abundance fitness": "0.081 ± 0.093"}
{"variant": "A65P", "abundance fitness": "0.117 ± 0.069"}
{"variant": "A65F", "abundance fitness": "-0.111 ± 0.11"}
{"variant": "A65H", "abundance fitness": "-0.081 ± 0.12"}
{"variant": "Y7V", "abundance fitness": "-0.651 ± 0.13"}
{"variant": "Y7T", "abundance fitness": "-0.679 ± 0.11"}
{"variant": "Y7N", "abundance fitness": "0.007 ± 0.16"}
{"variant": "Y7W", "abundance fitness": "-0.462 ± 0.098"}
{"variant": "Y7P", "abundance fitness": "-0.452 ± 0.16"}
{"variant": "A66R", "abundance fitness": "0.056 ± 0.05"}
{"variant": "A66P", "abundance fitness": "0.182 ± 0.05"}
{"variant": "A66K", "abundance fitness": "-0.221 ± 0.19"}
{"variant": "A66T", "abundance fitness": "0.184 ± 0.061"}
{"variant": "A66D", "abundance fitness": "0.509 ± 0.12"}
{"variant": "A66V", "abundance fitness": "0.064 ± 0.075"}
{"variant": "K2E", "abundance fitness": "-0.464 ± 0.11"}
{"variant": "K2N", "abundance fitness": "-0.005 ± 0.1"}
{"variant": "K2W", "abundance fitness": "-0.781 ± 0.15"}
{"variant": "K2H", "abundance fitness": "-0.012 ± 0.12"}
{"variant": "K2L", "abundance fitness": "-0.428 ± 0.066"}
{"variant": "R51Y", "abundance fitness": "-0.199 ± 0.096"}
{"variant": "R51I", "abundance fitness": "-0.175 ± 0.082"}
{"variant": "R51S", "abundance fitness": "-0.02 ± 0.044"}
{"variant": "R51E", "abundance fitness": "0.222 ± 0.079"}
{"variant": "R51H", "abundance fitness": "-0.018 ± 0.054"}
{"variant": "R51D", "abundance fitness": "0.101 ± 0.083"}
{"variant": "K50R", "abundance fitness": "0.079 ± 0.25"}
{"variant": "G28A", "abundance fitness": "-0.096 ± 0.065"}
{"variant": "G28D", "abundance fitness": "0.098 ± 0.083"}
{"variant": "G28T", "abundance fitness": "-0.028 ± 0.086"}
{"variant": "V48G", "abundance fitness": "0.505 ± 0.26"}
{"variant": "V48I", "abundance fitness": "-0.133 ± 0.19"}
{"variant": "R68E", "abundance fitness": "0.197 ± 0.058"}
{"variant": "R68P", "abundance fitness": "0.297 ± 0.066"}
{"variant": "R68F", "abundance fitness": "-0.33 ± 0.25"}
{"variant": "R68H", "abundance fitness": "-0.137 ± 0.17"}
{"variant": "G42C", "abundance fitness": "0.04 ± 0.085"}
{"variant": "G42M", "abundance fitness": "-0.613 ± 0.068"}
{"variant": "G42Y", "abundance fitness": "-0.525 ± 0.15"}
{"variant": "G42W", "abundance fitness": "-0.858 ± 0.14"}
{"variant": "G42H", "abundance fitness": "-0.075 ± 0.11"}
{"variant": "A63H", "abundance fitness": "0.155 ± 0.079"}
{"variant": "A63C", "abundance fitness": "-0.105 ± 0.089"}
{"variant": "A63F", "abundance fitness": "-0.637 ± 0.22"}
{"variant": "A63N", "abundance fitness": "0.107 ± 0.074"}
{"variant": "A63V", "abundance fitness": "-0.212 ± 0.055"}
{"variant": "A63Y", "abundance fitness": "-0.167 ± 0.068"}
{"variant": "A63Q", "abundance fitness": "0.119 ± 0.064"}
{"variant": "A63P", "abundance fitness": "0.111 ± 0.048"}
{"variant": "T53W", "abundance fitness": "-0.152 ± 0.055"}
{"variant": "T53P", "abundance fitness": "-0.326 ± 0.076"}
{"variant": "E44S", "abundance fitness": "-0.101 ± 0.05"}
{"variant": "Q1N", "abundance fitness": "0.271 ± 0.15"}
{"variant": "Q1W", "abundance fitness": "-0.282 ± 0.11"}
{"variant": "Q1C", "abundance fitness": "-0.362 ± 0.14"}
{"variant": "Q1M", "abundance fitness": "0.137 ± 0.13"}
{"variant": "Q1F", "abundance fitness": "-0.088 ± 0.13"}
{"variant": "Q1L", "abundance fitness": "-0.124 ± 0.072"}
{"variant": "Q1I", "abundance fitness": "-0.035 ± 0.11"}
{"variant": "Q1R", "abundance fitness": "-0.087 ± 0.06"}
{"variant": "K19L", "abundance fitness": "-0.166 ± 0.05"}
{"variant": "K19D", "abundance fitness": "-1.13 ± 0.33"}
{"variant": "K19P", "abundance fitness": "-1.03 ± 0.18"}
{"variant": "K19A", "abundance fitness": "-0.051 ± 0.063"}
{"variant": "K19H", "abundance fitness": "-0.197 ± 0.094"}
{"variant": "K19F", "abundance fitness": "-0.139 ± 0.099"}
{"variant": "K19I", "abundance fitness": "-0.179 ± 0.058"}
{"variant": "Q15S", "abundance fitness": "-0.538 ± 0.18"}
{"variant": "Q15P", "abundance fitness": "-1.08 ± 0.19"}
{"variant": "Q15I", "abundance fitness": "0.027 ± 0.27"}
{"variant": "Q15N", "abundance fitness": "-0.212 ± 0.3"}
{"variant": "I18T", "abundance fitness": "-0.721 ± 0.19"}
{"variant": "I18W", "abundance fitness": "-0.692 ± 0.16"}
{"variant": "I18K", "abundance fitness": "-1.18 ± 0.43"}
{"variant": "I18C", "abundance fitness": "-0.685 ± 0.16"}
{"variant": "A35W", "abundance fitness": "-0.16 ± 0.076"}
{"variant": "A35T", "abundance fitness": "-0.066 ± 0.08"}
{"variant": "A35E", "abundance fitness": "-0.015 ± 0.078"}
{"variant": "A35R", "abundance fitness": "0.12 ± 0.048"}
{"variant": "A35I", "abundance fitness": "-0.123 ± 0.12"}
{"variant": "A35F", "abundance fitness": "-0.375 ± 0.11"}
{"variant": "A35L", "abundance fitness": "-0.289 ± 0.068"}
{"variant": "A35Y", "abundance fitness": "-0.197 ± 0.13"}
{"variant": "E29L", "abundance fitness": "-0.832 ± 0.099"}
{"variant": "E29P", "abundance fitness": "-0.802 ± 0.18"}
{"variant": "E29M", "abundance fitness": "-0.564 ± 0.12"}
{"variant": "E29D", "abundance fitness": "-0.174 ± 0.087"}
{"variant": "E29T", "abundance fitness": "-0.495 ± 0.077"}
{"variant": "F11D", "abundance fitness": "-0.746 ± 0.15"}
{"variant": "F11V", "abundance fitness": "-0.14 ± 0.07"}
{"variant": "F11M", "abundance fitness": "-0.101 ± 0.071"}
{"variant": "F11C", "abundance fitness": "-0.302 ± 0.13"}
{"variant": "A17Q", "abundance fitness": "-0.004 ± 0.072"}
{"variant": "A17N", "abundance fitness": "-0.185 ± 0.16"}
{"variant": "A17I", "abundance fitness": "-0.012 ± 0.076"}
{"variant": "A17E", "abundance fitness": "-0.082 ± 0.1"}
{"variant": "D13T", "abundance fitness": "-0.247 ± 0.089"}
{"variant": "D13H", "abundance fitness": "-0.235 ± 0.12"}
{"variant": "D13K", "abundance fitness": "-0.646 ± 0.18"}
{"variant": "D13N", "abundance fitness": "-0.462 ± 0.13"}
{"variant": "D39S", "abundance fitness": "0.021 ± 0.045"}
{"variant": "D39F", "abundance fitness": "-0.167 ± 0.07"}
{"variant": "D39E", "abundance fitness": "0.022 ± 0.084"}
{"variant": "D39A", "abundance fitness": "-0.026 ± 0.064"}
{"variant": "Y67C", "abundance fitness": "0.208 ± 0.064"}
{"variant": "Y67P", "abundance fitness": "0.352 ± 0.088"}
{"variant": "Y67F", "abundance fitness": "-0.106 ± 0.077"}
{"variant": "Y67G", "abundance fitness": "0.263 ± 0.053"}
{"variant": "Y67V", "abundance fitness": "0.323 ± 0.069"}
{"variant": "Y67H", "abundance fitness": "0.155 ± 0.081"}
{"variant": "W38P", "abundance fitness": "-1.03 ± 0.22"}
{"variant": "W38S", "abundance fitness": "-0.863 ± 0.098"}
{"variant": "W38I", "abundance fitness": "-1.2 ± 0.42"}
{"variant": "W38R", "abundance fitness": "-0.918 ± 0.12"}
{"variant": "W38C", "abundance fitness": "-0.743 ± 0.11"}
{"variant": "W38D", "abundance fitness": "-0.789 ± 0.21"}
{"variant": "Y60S", "abundance fitness": "0.039 ± 0.057"}
{"variant": "Y60E", "abundance fitness": "0.08 ± 0.062"}
{"variant": "Y60T", "abundance fitness": "0.148 ± 0.059"}
{"variant": "F27K", "abundance fitness": "0.258 ± 0.061"}
{"variant": "F27N", "abundance fitness": "0.295 ± 0.085"}
{"variant": "F27G", "abundance fitness": "-0.071 ± 0.047"}
{"variant": "F27Q", "abundance fitness": "0.093 ± 0.079"}
{"variant": "F27D", "abundance fitness": "0.133 ± 0.068"}
{"variant": "F27V", "abundance fitness": "0.004 ± 0.049"}
{"variant": "K57F", "abundance fitness": "-0.23 ± 0.086"}
{"variant": "K57T", "abundance fitness": "-0.093 ± 0.063"}
{"variant": "K57D", "abundance fitness": "0.025 ± 0.063"}
{"variant": "K57C", "abundance fitness": "-0.275 ± 0.064"}
{"variant": "K57P", "abundance fitness": "-0.165 ± 0.065"}
{"variant": "K57V", "abundance fitness": "-0.252 ± 0.057"}
{"variant": "I33C", "abundance fitness": "-0.324 ± 0.089"}
{"variant": "I33P", "abundance fitness": "-1.01 ± 0.12"}
{"variant": "I33E", "abundance fitness": "-0.131 ± 0.067"}
{"variant": "I33S", "abundance fitness": "-0.267 ± 0.05"}
{"variant": "I33R", "abundance fitness": "-0.134 ± 0.054"}
{"variant": "I33K", "abundance fitness": "-0.01 ± 0.081"}
{"variant": "G20W", "abundance fitness": "-0.455 ± 0.076"}
{"variant": "G20Y", "abundance fitness": "-0.361 ± 0.096"}
{"variant": "G20I", "abundance fitness": "-0.01 ± 0.099"}
{"variant": "G20E", "abundance fitness": "0.085 ± 0.16"}
